One molecule from publication PMC3404614 (Biochimica et Biophysica Acta, 2012) can be followed below.

The test concerns Akt. Kind of test: pS473 Akt phosphorylation by pancreatic growth factors. It is filed as cell-based. Conditions: rat pancreatic acini; data not shown.

B1: hepatocyte growth factor (protein, UniProt P17945 33-495; P17945 496-728, looked up)
Hepatocyte growth factor …: QKKRRNTLHEFKKSAKTTLTKEDPLVKIKTKKVNSADECANRCIRNKGFPFTCKAFVFDKSRKRCYWYPFNSMSSGVKKGFGHEFDLYENKDYIRNCIIGKGGSYKGTVSITKSGIKCQPWNSMIPHEHSFLPSSYRGKDLQENYCRNPRGEEGGPWCFTSNPEVRYEVCDIPQCSEVECMTCNGESYRGPMDHTESGKTCQRWDQQTPHRHKFLPERYPDKGFDDNYCRNPDGKPRPWCYTLDPDTPWEYCAIKMCAHSAVNETDVPMETTECIKGQGEGYRGTTNTIWNGIPCQRWDSQYPHKHDITPENFKCKDLRENYCRNPDGAESPWCFTTDPNIRVGYCSQIPKCDVSSGQDCYRGNGKNYMGNLSKTRSGLTCSMWDKNMEDLHRHIFWEPDASKLTKNYCRNPDDDAHGPWCYTGNPLVPWDYCPISRCEGDTTPTIVNLDHPVISCAKTKQLR
Hepatocyte growth factor beta …: VVNGIPTQTTVGWMVSLKYRNKHICGGSLIKESWVLTARQCFPARNKDLKDYEAWLGIHDVHERGEEKRKQILNISQLVYGPEGSDLVLLKLARPAILDNFVSTIDLPSYGCTIPEKTTCSIYGWGYTGLINADGLLRVAHLYIMGNEKCSQHHQGKVTLNESELCAGAEKIGSGPCEGDYGGPLICEQHKMRMVLGVIVPGRGCAIPNRPGIFVRVAYYAKWIHKVILTYKL
Turning to B1, the “pS473 Akt phosphorylation” value is “stimulated pS473 Akt phosphorylation”.
